Experimental data reported in US20150080295A1 (ZEALAND PHARMA A S, published 2015).
Numbered stars: 1 amine (or outer) side, 2 acyl side, 3 side chain; on linkers, the order of the positions; unused ones are H or OH. Square brackets hold non-standard residues; d marks the D form. Side chains are listed from the residue outwards. Ends that are not written are not given here. * marks the point of attachment. γGlu = O=C(O)[C@H](CCC(=O)[*:2])N[*:1]; Palmitoyl = CCCCCCCCCCCCCCCC(=O)*; Aib = CC(C)(N)C(=O)O

B1: ZP2668 (peptide)
peptide: H-HSQGTFTSDYSKYLDSKAARDFVRWLKLA-NH2
B2: ZP2866 (peptide)
peptide: H[dS]QGTFTSDYSKYLDSKAAHDFVEWLLRA-NH2
B3: ZP2867 (peptide)
peptide: H[Aib]QGTFTSDYSKYLDSKAAHDFVEWLLRA-NH2
B4: L006-0171 (peptide)
peptide: H-HSQGTFTSDYSKYLDSKAAQDFVEWLLRA-NH2
B5: L006-0172 (peptide)
peptide: H-HSQGTFTSDYSKYLDSKAAHDFVQWLLRA-NH2
B6: L006-0176 (peptide)
peptide: H-HSQGTFTSDYSKYLDSKAAHDFVEWLMNT-NH2
B7: L006-0212 (peptide)
peptide: H-HSQGTFTSDYSKYLDSKAAHDFVKWLLRA-NH2
B8: L006-0169 (peptide)
peptide: H-HSQGTFTSDYSKYLDSRAAHDFVEWLLRA-NH2
B9: L006-0170 (peptide)
peptide: H-HSQGTFTSDYSKYLDSKRAHDFVEWLLRA-NH2
B10: ZP2753 (peptide)
peptide: H-HSQGTFTSDYSKYLDSLAAQDFVQWLLNT-NH2
B11: ZP2667 (peptide)
peptide: H-HSQGTFTSDYSKYLDSKAAQDFVQWLMNT-NH2
B12: ZP2872 (peptide)
peptide: HSQGTFTSDYSKYLDSK([γGlu-Palmitoyl])AAHDFVEWLLRA-NH2
B13: L006-0208 (peptide)
peptide: H-HSQGTFTSDYSKYLDSKAAKDFVEWLLRA-NH2
B14: L006-0239 (peptide)
peptide: H-HSQGTFTSDYSKYLDKKAAHDFVEWLLRA-NH2
B15: L006-0296 (peptide)
peptide: H-HSQGTFTSDYSKYLDSKAAHDFVEWLLRA-OH
B16: ZP2669 (peptide)
peptide: H-HSQGTFTSDYSKYLDSKAAHDFVEWLLRA-NH2

The binders below were run against human glucagon-like peptide 1 receptor (human, UniProt P43220 24-463) (assay: cell-based or functional assay).
human glucagon-like peptide 1 receptor, sequence (P43220 24-463): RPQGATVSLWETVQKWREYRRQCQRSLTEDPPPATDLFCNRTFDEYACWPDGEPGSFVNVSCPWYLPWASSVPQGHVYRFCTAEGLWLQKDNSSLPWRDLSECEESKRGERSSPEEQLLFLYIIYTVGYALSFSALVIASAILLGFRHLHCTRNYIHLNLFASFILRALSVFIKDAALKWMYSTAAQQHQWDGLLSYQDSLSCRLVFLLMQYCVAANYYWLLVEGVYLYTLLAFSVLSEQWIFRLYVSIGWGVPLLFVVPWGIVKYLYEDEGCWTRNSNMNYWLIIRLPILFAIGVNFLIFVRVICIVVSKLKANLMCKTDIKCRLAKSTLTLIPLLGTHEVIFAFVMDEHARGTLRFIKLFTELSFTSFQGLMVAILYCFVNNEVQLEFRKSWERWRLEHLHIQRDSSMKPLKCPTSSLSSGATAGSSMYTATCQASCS

| GLP-1R EC50 (nM), cAMP formation in HEK293 cells expressing human GLP-1-R [nM] | Binder |
| --- | --- |
| 0.08 | B1 |
| 0.09 | B2 |
| 0.08 | B3 |
| 0.37 | B4 |
| 0.21 | B5 |
| 0.44 | B6 |
| 0.76 | B7 |
| 0.99 | B8 |
| 0.5 | B9 |
| 0.04 | B10 |
| 0.02 | B11 |
| 0.103 | B12 |
| 0.57 | B13 |
| 0.98 | B14 |
| 0.14 | B15 |
| 0.05 | B16 |

What follows are binders tested against human glucagon receptor (human, UniProt P47871 26-477) (assay: cell-based or functional assay).

| GLUR EC50 (nM), cAMP formation in HEK293 cells expressing human Glucagon-R [nM] | Binder |
| --- | --- |
| 0.8 | B1 |
| 0.11 | B2 |
| 0.06 | B3 |
| 0.78 | B4 |
| 0.37 | B5 |
| 0.57 | B6 |
| 1.23 | B7 |
| 152 | B8 |
| 0.79 | B9 |
| 0.08 | B10 |
| 0.07 | B11 |
| 0.085 | B12 |
| 0.55 | B13 |
| 1.05 | B14 |
| 0.12 | B15 |
| 0.05 | B16 |
